# Laboratory results reported in patent US11078245B2, “Colon and pancreas cancer peptidomimetics” (PRECISION BIOLOGICS, INC., priority 2010, dated 2021).
# Assays:
# Pharmacokinetics = type: in vivo, mice; details: for serum half-life (t½): single dose 100 mg/kg
# Experimental: To determine whether gender impacted the disposition of NEO-101 in vivo, each treatment group contained four males and four females. Clearance, Cmax and half-life following a single dose of 10 or 100 mg/kg were compared by non-parametric Mann-Whitney test. […] However, the serum half-life of NEO-101 was shorter in females than in males. […] However, it is likely that this is a spurious observation, arising from high inter-animal variability, as this difference in half-life was not replicated following multiple doses, regardless of dose level.
# The data provides useful guidance for the dosing schedule of possible therapeutic regimes. Mice injected intravenously with 10 mg/kg of NEO-101 may be used for comparison to the doses used in therapy regiments for humans, for instance.
# human tissues = experiment: Immunohistochemistry of human tissues, overall; type: binding
# From the text: Thus, the NPC-1 epitope is expressed by colon and pancreatic tumor cells but not normal colon or pancreatic […] cells. Therefore, the NPC-1 epitope may be used as a tumor-specific marker or a therapeutic target for colon and pancreatic cancer. Further, peptidomimetics of the NPC-1 epitope (e.g., the polypeptide of SEQ ID NO: 1-24) as described herein may be used in the detection and treatment of cancer (e.g., colon, pancreas, breast, lung, ovarian, stomach, esophageal).
# AsPC-1 (Pancreatic) = experiment: ADCC 4-hour 111-Indium release assay; type: cell-based, human
# Experimental: (§1) The NEO-101 antibody was tested for antibody-dependent cell cytotoxicity (ADCC) activity against several colorectal and pancreatic tumor cell targets in vitro. The ADCC assay measures the amount of cell cytotoxicity that an antibody facilitates in a defined time period by the release of radiolabelled cytoplasmic proteins into the culture medium. […] The specific lytic activity was titratable with the number of effector cells in the assay.
# PANC-1 (Pancreatic) = experiment: ADCC 4-hour 111-Indium release assay; type: cell-based, human
# Experimental: as §1
# LS174T (Colorectal) = experiment: ADCC 4-hour 111-Indium release assay; type: cell-based, human
# Experimental: as §1
# SW1463 (Colorectal) = experiment: ADCC 4-hour 111-Indium release assay; type: cell-based, human
# Experimental: as §1
# CFPAC-1 (Pancreatic) = experiment: ADCC 4-hour 111-Indium release assay; type: cell-based, human
# Experimental: as §1
# SK-MEL (Melanoma) = experiment: ADCC 4-hour 111-Indium release assay; type: cell-based, human
# Experimental: as §1
# Colo-205 (Colorectal) = experiment: ADCC 4-hour 111-Indium release assay; type: cell-based, human
# Experimental: as §1
# [1] = Preliminary non-GLP toxicity study; type: in vivo, BALB/c mice
# Experimental: A preliminary non-GLP toxicity study using a research-grade preparation of NEO-101 was also conducted. Normal BALB/c mice were Injected with a single IV dose of saline, or 3, 10, 30, or 100 mg/kg of NEO-101 (n=3 female mice per group). In-life parameters measured included body weights and clinical observations. Mice were humanely sacrificed 72 hours following the injection and specimens were collected for analysis. Post-mortem parameters included macroscopic examination, blood cell counts, serum chemistries, and histopathological evaluation of selected major organs and tissues. […] No other toxicities were detected in these studies potentially associated with NEO-101, including during histopathological examination of the major organ systems in these mice.
# CFPAC1 cells = experiment: NEO-101-coupled Dynal beads rosette assay; type: cell-based, human; details: antibody-coupled Dynal beads with TBS, no M13 clone
# Experimental: The M13 clones identified by the biopanning were also immunoassayed using magnetic beads. Aliquots of 5 μl M13 phage (10^11/10 μl) were mixed with 10 μl NEO-101-coupled Dynal® beads at RT for 20 min on a rotator. CFPAC1 cells (30 μl of 10^6 cells/ml) were added and incubated at 4° C. for 30 min. Rosetted cells were counted (>8 beads/cell).
# DU145 (Prostate) = experiment: ADCC 4-hour 111-Indium release assay; type: cell-based, human
# [2] = test system: human AsPC-1 pancreas tumor; experiment: AsPC-1 pancreas tumor xenograft model; type: in vivo, nude mice; details: 200 μg ip
# Experimental: The NEO-101 antibody was tested for anti-tumor activity using the human AsPC-1 pancreas tumor xenograft model in nude mice. In this activity model, mice were implanted with human AsPC-1 tumor cells and allowed to establish to approximately 20-50 mm^3, measurable with a caliper in approximately 4-6 days. The treatment regimen included intraperitoneal injection of 200 μg of research-grade NEO-101 or a negative control human IgG (Pierce), followed on the next day with an intraperitoneal injection of IL-2-activated normal human PBMCs (approximately 2×10^7 per mouse per injection). Two cycles of treatment were administered such that antibody injections occurred on days 5 and 8, and PBMC injections occurred on days 6 and 9 in this study. Throughout the study, the tumor growth was monitored twice weekly by measurement with a caliper. Tumor volume was calculated using the equation: […], in units of cubic millimeters. If a tumor reached approximately 800 mm^3, or became ulcerated or necrotic, the mouse was humanely sacrificed. The study was terminated on study day 35.
# This anti-tumor activity study was repeated in a separate study using the same AsPC-1 pancreas tumor model and the 200 μg dose of NEO-101 antibody. However, in the second study, four cycles of treatment were administered instead of two cycles. […]
molecule,measurement,setting,value
"NEO-101: Chimeric NEO-101 antibody, engineered in CHO-DG44 production cell clone 4B7; targets a variant of MUC5AC (protein) light: QVVLTQSPVIMSASPGEKVTMTCSASSSISYMYWYQQKPGTSPKRWIYDTSKLASGVPARFSGSGSGTSYSLTISNMEAGDAATYYCHQRDSYPWTFGGGTNLEIK heavy: QVQLKESGPDLVAPSQSLSITCTVSGFSLSKFGVNWVRQPPGKGLEWLGVIWGDGSTSYNSGLISRLSISKENSKSQVFLKLNSLQADDTATYYCVKPGGDYWGHGTSVTVSS",serum half-life (t½),Pharmacokinetics; females,109.5 ± 14.72 h
same,serum half-life (t½),Pharmacokinetics; males,285.4 ± 139.5 h
same,clearance,Pharmacokinetics; mice,low clearance
same,volume of distribution,Pharmacokinetics; mice,limited volume of distribution
same,gender-specific differences in clearance or Cmax,Pharmacokinetics; single dose of 10 or 100 mg/kg,No significant gender-specific differences were observed
same,cross-reactivity in other normal human tissues stained,human tissues,no cross-reactivity
same,% Specific Killing (±SEM),AsPC-1 (Pancreatic); Effector:Target 12.5:1,26.5 ± 6.7%
same,% Specific Killing (±SEM),AsPC-1 (Pancreatic); Effector:Target 25:1,36.2 ± 2.6%
same,% Specific Killing (±SEM),AsPC-1 (Pancreatic); Effector:Target 50:1,44.5 ± 6.8%
same,% Specific Killing (±SEM),PANC-1 (Pancreatic); Effector:Target 12.5:1,21.2 ± 0.6%
same,% Specific Killing (±SEM),PANC-1 (Pancreatic); Effector:Target 25:1,33.2 ± 3.3%
same,% Specific Killing (±SEM),PANC-1 (Pancreatic); Effector:Target 50:1,46.8 ± 2.1%
same,% Specific Killing (±SEM),LS174T (Colorectal); Effector:Target 12.5:1,9.5 ± 0.5%
same,% Specific Killing (±SEM),LS174T (Colorectal); Effector:Target 25:1,18.5 ± 4.1%
same,% Specific Killing (±SEM),LS174T (Colorectal); Effector:Target 50:1,26.8 ± 2.9%
same,% Specific Killing (±SEM),SW1463 (Colorectal); Effector:Target 12.5:1,17.9 ± 1.7%
same,% Specific Killing (±SEM),SW1463 (Colorectal); Effector:Target 25:1,25.5 ± 0.6%
same,% Specific Killing (±SEM),SW1463 (Colorectal); Effector:Target 50:1,33.8 ± 1.0%
same,% Specific Killing (±SEM),CFPAC-1 (Pancreatic); Effector:Target 12.5:1,11.1 ± 1.6%
same,% Specific Killing (±SEM),CFPAC-1 (Pancreatic); Effector:Target 25:1,23.2 ± 2.2%
same,% Specific Killing (±SEM),CFPAC-1 (Pancreatic); Effector:Target 50:1,26.9 ± 1.6%
same,% Specific Killing (±SEM),SK-MEL (Melanoma); Effector:Target 12.5:1,2.3 ± 0.6%
same,% Specific Killing (±SEM),SK-MEL (Melanoma); Effector:Target 25:1,3.3 ± 1.1%
same,% Specific Killing (±SEM),SK-MEL (Melanoma); Effector:Target 50:1,4.6 ± 1.1%
same,% Specific Killing (±SEM),Colo-205 (Colorectal); Effector:Target 12.5:1,32.8 ± 2.0%
same,% Specific Killing (±SEM),Colo-205 (Colorectal); Effector:Target 25:1,46.4 ± 1.6%
same,% Specific Killing (±SEM),Colo-205 (Colorectal); Effector:Target 50:1,66.7 ± 0.6%
same,serum aspartate transaminase (AST),[1]; 2 out of 3 mice that received 100 mg/kg,"mild, but statistically insignificant elevation"
same,"body weight, blood cell counts, and histopathology of 7 major organs and tissues","[1]; single IV dose 3, 10, 30 or 100 mg/kg, 72 hours",no significant changes
same,Positive rosette cells (%),CFPAC1 cells,41%
same,% Specific Killing (±SEM),DU145 (Prostate); Effector:Target 12.5:1,−0.3 ± 0.1%
same,% Specific Killing (±SEM),DU145 (Prostate); Effector:Target 25:1,0.3 ± 0.8%
same,% Specific Killing (±SEM),DU145 (Prostate); Effector:Target 50:1,−0.5 ± 0.3%
same,tumor growth versus human IgG control,"[2]; four cycles, with PBMCs, significant from Day 18 (P=0.0044)",very similar growth inhibition
same,tumor growth versus control groups,"[2]; two cycles, with IL-2-activated human PBMCs, significant from day 13 (P=0.0072)",Tumor growth inhibition was observed
